Measured values as given in IntAct's records for PubMed 16595635.

Columns and labels:
tnfl6_human FASLG [1] = target: tnfl6_human FASLG (UniProt P48023)
tnfl6_human FASLG [2] = target: tnfl6_human FASLG (UniProt P48023); remark: listed apart in the source
tnfl6_human FASLG [3] = target: tnfl6_human FASLG (UniProt P48023); remark: listed apart in the source

UniProt P48023, sequence (P48023 whole entry): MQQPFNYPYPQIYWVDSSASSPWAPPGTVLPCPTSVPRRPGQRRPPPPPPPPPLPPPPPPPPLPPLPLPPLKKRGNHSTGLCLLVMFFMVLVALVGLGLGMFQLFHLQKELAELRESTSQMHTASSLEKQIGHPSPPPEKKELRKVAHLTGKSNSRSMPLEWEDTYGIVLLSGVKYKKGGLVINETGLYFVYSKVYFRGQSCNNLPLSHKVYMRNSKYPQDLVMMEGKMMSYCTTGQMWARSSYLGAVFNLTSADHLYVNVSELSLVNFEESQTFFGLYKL

Substance	effect of a mutation on the interaction (tnfl6_human FASLG [1])	effect of a mutation on the interaction (tnfl6_human FASLG [2])	effect of a mutation on the interaction (tnfl6_human FASLG [3])
SH2/SH3 adapter protein NCK1 (Homo sapiens) (from UniProt P16333-1) W38K;W143K;W229K	disrupting interaction strength	disrupting interaction strength	–
SH2/SH3 adapter protein NCK1 (Homo sapiens) (from UniProt P16333-1) W143K	–	–	disrupting interaction strength
SH2/SH3 adapter protein NCK1 (Homo sapiens) (from UniProt P16333-1) W229K	–	–	disrupting interaction strength
